The text below walks through data of US20260250420A1 (SICHUAN KELUN BIOTECH BIOPHARMACEUTICAL, published 2026).

B1: 64A10HZ (anti-human PTK7 humanized antibody) (antibody, human IgG1, kappa, V domains shown)
VH: QVQLQESGPGLVKPSETLSLTCTVSGFSLTSYGVYWVRQPPGKGPEWLGVIWTSGNTNYNPSLKSRLTISKDNSKNQVSLKLSSVTAADTAVYYCVKHDGGNYVGVMNYWGQGTLVTVSS
VL: EIVMTQSPDFQSVTPKEKVTITCRASQSISDYLHWYQQKPDQSPKLLIKYASQSISGVPSRFSGSGSGSDFTLTINSLEAEDAATYYCQNGHSFPPTFGQGTKLEIKR
notes: Human IgG1 heavy chain constant region and human Kappa light chain constant region; expressed in CHO-S cells
B2: 101A6HZ (anti-human PTK7 humanized antibody) (antibody, human IgG1, kappa)
heavy: not shown
light: DIVMTQSPDSLAVSLGERATINCKASQDVGSAVIWYQQKPGQSPKLLIYWASTRHTGVPDRFSGSGSGTDFTLTISSLQAEDVAVYYCQQYSSYPLTFGQGTKLEIKRTVAAPSVFIFPPSDEQLKSGTASVVCLLNNFYPREAKVQWKVDNALQSGNSQESVTEQDSKDSTYSLSSTLTLSKADYEKHKVYACEVTHQGLSSPVTKSFNRGEC
B3: Hu24 (PTK7 control antibody, taken from Hu24 in the Patent CN201580030255) (antibody)
chain 1: QVQLVQSGPEVKKPGASVKVSCKASGYTFTDYAVHWVRQAPGKRLEWIGVISTYNDYTYNNQDFKGRVTMTRDTSASTAYMELSRLRSEDTAVYYCARGNSYFYALDYWGQGTSVTVSS
chain 2: EIVLTQSPATLSLSPGERATLSCRASESVDSYGKSFMHWYQQKPGQAPRLLIYRASNLESGIPARFSGSGSGTDFTLTISSLEPEDFAVYYCQQSNEDPWTFGGGTKLEIK

The target of the first assay is T1, human PTK7 on cells (tumor cells endogenously expressing PTK7); CHO-hPTK7, CHO-S-hPTK7 and 293T-hPTK7 … (human, UniProt Q13308 31-1070).
T1 sequence (looked up): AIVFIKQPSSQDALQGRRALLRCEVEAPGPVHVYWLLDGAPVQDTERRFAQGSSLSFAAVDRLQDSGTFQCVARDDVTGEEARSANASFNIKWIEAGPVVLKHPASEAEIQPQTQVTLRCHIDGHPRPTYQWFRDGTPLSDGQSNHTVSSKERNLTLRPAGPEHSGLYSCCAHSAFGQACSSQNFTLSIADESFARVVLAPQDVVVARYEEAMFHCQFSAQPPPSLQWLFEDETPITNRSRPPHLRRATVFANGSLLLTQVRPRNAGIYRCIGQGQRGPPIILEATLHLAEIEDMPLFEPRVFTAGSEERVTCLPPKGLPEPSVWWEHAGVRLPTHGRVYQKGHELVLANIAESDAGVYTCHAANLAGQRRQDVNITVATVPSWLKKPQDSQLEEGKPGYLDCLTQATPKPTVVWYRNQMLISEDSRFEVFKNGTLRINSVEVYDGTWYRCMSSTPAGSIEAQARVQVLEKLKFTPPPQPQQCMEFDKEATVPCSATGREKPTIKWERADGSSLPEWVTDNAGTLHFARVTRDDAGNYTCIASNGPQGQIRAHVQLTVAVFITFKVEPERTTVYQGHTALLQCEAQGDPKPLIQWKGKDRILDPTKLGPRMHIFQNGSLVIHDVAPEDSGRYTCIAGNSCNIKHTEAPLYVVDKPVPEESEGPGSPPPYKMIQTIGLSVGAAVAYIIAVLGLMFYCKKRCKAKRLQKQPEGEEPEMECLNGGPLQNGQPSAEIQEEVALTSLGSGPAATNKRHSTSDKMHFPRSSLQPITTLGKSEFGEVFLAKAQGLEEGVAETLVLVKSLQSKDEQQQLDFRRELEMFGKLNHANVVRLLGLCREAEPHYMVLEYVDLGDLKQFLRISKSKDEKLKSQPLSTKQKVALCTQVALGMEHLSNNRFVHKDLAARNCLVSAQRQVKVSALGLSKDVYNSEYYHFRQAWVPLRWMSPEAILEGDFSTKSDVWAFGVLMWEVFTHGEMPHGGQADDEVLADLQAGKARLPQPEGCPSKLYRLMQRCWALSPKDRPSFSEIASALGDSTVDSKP
Briefly: cell-based or functional assay.
As for B1, the “FADU cell endocytosis activity, EC50” value is 0.147 µg/mL.

In the case of B2, the “FADU cell endocytosis activity, EC50” value was found to be 0.115 µg/mL.

Take B3: the “FADU cell endocytosis activity, EC50” value was found to be 0.18 µg/mL.

A further assay addresses T2, monkey PTK7 protein (extracellular sequence of monkey PTK7 with C-terminal 6×His tag) (monkey).
T2 chain: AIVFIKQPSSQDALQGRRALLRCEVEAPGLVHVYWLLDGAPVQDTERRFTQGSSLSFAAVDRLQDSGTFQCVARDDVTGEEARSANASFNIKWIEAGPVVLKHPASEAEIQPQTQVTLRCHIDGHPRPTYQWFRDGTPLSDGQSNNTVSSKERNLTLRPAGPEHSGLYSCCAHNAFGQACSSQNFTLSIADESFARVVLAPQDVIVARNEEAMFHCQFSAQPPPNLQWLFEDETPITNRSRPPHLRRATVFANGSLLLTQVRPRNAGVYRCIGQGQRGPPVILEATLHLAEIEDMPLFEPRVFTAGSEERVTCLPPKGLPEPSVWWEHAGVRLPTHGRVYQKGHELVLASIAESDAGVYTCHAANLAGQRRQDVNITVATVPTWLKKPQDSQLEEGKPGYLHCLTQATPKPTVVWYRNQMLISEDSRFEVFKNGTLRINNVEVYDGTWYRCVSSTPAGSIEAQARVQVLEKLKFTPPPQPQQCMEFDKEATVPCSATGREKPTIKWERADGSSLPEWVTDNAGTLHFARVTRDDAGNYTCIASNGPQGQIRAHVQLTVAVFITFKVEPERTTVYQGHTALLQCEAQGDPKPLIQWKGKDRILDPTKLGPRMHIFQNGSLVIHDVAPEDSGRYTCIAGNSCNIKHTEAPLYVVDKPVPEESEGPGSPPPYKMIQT
Briefly: ELISA, coated monkey PTK7 protein.
For the molecule B1, the EC50 was determined as 0.0201 µg/mL.

B2: it took 1.23 µg/mL to reach a half-maximal effect (EC50).

For B3, it took 0.134 µg/mL to reach a half-maximal effect (EC50).

For another assay, the target named is T3, human PTK7 protein (extracellular sequence of human PTK7 with C-terminal 6×His tag) (human, UniProt Q13308 31-704).
T3 construct: extracellular domain; Expressed transiently in HEK293 cells; also called human PTK7-His; human PTK7-His protein
T3 sequence: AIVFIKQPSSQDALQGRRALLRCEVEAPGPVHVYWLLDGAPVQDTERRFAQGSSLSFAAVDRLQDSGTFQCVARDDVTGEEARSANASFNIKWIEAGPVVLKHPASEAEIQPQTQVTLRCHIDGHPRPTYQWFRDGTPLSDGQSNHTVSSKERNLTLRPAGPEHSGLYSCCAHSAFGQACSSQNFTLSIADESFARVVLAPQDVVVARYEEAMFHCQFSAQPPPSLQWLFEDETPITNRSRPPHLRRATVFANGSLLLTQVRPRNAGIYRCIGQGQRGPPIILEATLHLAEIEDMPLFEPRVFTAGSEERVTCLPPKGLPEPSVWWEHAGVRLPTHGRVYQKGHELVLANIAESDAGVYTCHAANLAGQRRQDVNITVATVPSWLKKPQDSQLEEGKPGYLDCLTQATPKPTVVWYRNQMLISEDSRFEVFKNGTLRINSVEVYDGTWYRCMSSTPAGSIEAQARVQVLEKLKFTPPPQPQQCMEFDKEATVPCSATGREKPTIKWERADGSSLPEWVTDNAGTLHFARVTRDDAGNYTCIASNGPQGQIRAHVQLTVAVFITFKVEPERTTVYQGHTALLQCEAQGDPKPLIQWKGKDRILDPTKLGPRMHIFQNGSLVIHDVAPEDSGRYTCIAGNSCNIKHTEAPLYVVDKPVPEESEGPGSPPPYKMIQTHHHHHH
Kind of assay: ELISA, coated human PTK7-His protein 1 µg/ml. Here is the method: The original data was imported into software for nonlinear curve fitting, and the EC₅₀ of binding of each antibody to the human PTK7 was calculated, respectively.
The molecule B1 had a half-maximal effective concentration (EC50) of 0.0155 µg/mL.

In turn, B2 yielded an EC50 of 0.0266 µg/mL.

With B3, the midpoint of the response, the EC50, lay at 0.0466 µg/mL.

In a further assay the target is T3, human PTK7 protein (extracellular …). Kind of assay: BLI (ForteBio), antibody on Protein A sensor, human PTK7-His 200-3.125 nM, 1:1 global fit. The text has this: The dynamic affinity of the control Hu24 and candidate antibodies 64A10HZ, 101A6HZ, 4E12HZ and 19C2HZ with human PTK7-His was detected by using ForteBio (Pall life sciences).
As to B1, the Kd amounted to 10.9 nM, the dissociation rate constant (koff) turned out to be 0.00278 s⁻¹ and the kon worked out at 255000 M⁻¹ s⁻¹.

B2: the Kd came out at 42.4 nM, the off-rate (koff) was found to be 0.00566 s⁻¹ and the kon came to 134000 M⁻¹ s⁻¹.

Consider B3, for which the Kd turned out to be 4.96 nM, the off-rate (koff) stood at 0.00105 s⁻¹ and the kon amounted to 211000 M⁻¹ s⁻¹.
